Test results published in paper PMC5435866.
Positions count from the first letter of the chain named.

How the values were obtained:
Assay in all cases: EMSA
[1] = molecular target: T1, Drosophila SLBP ER (UniProt Q9VAN6 1-276, A210G;E212Q;R213C)
T1 sequence: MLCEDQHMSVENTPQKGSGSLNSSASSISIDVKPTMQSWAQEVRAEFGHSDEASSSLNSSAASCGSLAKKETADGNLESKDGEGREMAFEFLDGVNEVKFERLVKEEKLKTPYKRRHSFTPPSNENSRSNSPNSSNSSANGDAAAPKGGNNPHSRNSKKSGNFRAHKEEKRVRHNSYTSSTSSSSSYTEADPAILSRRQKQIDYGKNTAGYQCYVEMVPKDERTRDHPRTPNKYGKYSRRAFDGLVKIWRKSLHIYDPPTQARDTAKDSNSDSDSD

[2] = molecular target: T2, Drosophila SLBP 4S-4E (UniProt Q9VAN6 1-276, S269E;S271E;S273E;S275E)
T2 sequence: T1 sequence with G210A, Q212E, C213R, S269E, S271E, S273E, S275E

[3] = molecular target: T3, Drosophila SLBP 4S-4A (UniProt Q9VAN6 1-276, S269A;S271A;S273A;S275A)
T3 sequence: T1 sequence with G210A, Q212E, C213R, S269A, S271A, S273A, S275A

Measured: binding result

GUGCCAAAAAGGCUCUUUUCAGAGCCACCCA (structured_RNA) [SL RNA]
binds: all assays above
